{"source": "paper PMC4902928", "about": "“Molecular characterization of flavanone 3-hydroxylase gene and flavonoid accumulation in two chemotyped safflower lines in response to methyl jasmonate stimulation” (BMC Plant Biology, 2016)", "system": "T1, O=C1C[C@@H](c2ccc(O)cc2)Oc2cc(O)cc(O)c21", "T1 construct": "MBP fusion (pMAL-c5X) from E. coli BL21(DE3)pLysS, MBP tag cut off by factor Xa", "experiment": "UPLC-Q-TOF/MS of dihydrokaempferol formed; Michaelis-Menten fit", "format": "biochemical, Carthamus tinctorius", "settings": "1 mM 2-oxoglutaric acid, 40 μM FeSO4, 2 mg/ml ascorbic acid, 100 mM tricine pH 7.5, 30 °C, naringenin 10-800 μM, unit misprinted as 'Mm'"}
{"substance": "CtF3H (Carthamus tinctorius)", "values": [{"measurement": "Km", "result": "43.75 ± 7.12", "unit": "µM"}]}
